The record followed here is patent US20040018971A1 (published 2004).

Experiment [1] has as its target T1, HLA-A*0301 (human).
T1 construct: also called HLA-A3
The experiment in a line: inhibition of 125I-labelled standard peptide 941.12 binding to purified HLA-A*0301, gel filtration. In general terms: Size exclusion chromatography separates by hydrodynamic size, large species first.

For another experiment, the target named is T2, HLA-DRB1*0101 (human).
T2 construct: also called DR1
Kind of experiment: competition with 125I probe peptide, purified HLA.

Experiment [2] concerns the target T3, HLA-A*1101 (human).
T3 construct: The construct is not described
The experiment in a line: competition with 125I-labelled standard peptide for purified HLA, gel filtration.

For experiment [3], the target named is T4, HLA-A*0301 (human).
T4 construct: also called A3
The experiment is described as above.

A further experiment has as its target HLA-A*3101 (human). Kind of experiment: inhibition of 125I-labelled standard peptide binding to purified HLA, gel filtration.
The target in experiment [4] is HLA-A*0301 (human). The experiment is described as above.
The target in another experiment is HLA-A*6801 (human). The experiment is described as above.
Experiment [5] concerns the target HLA-A*1101 (human). The experiment is described as above.
The next experiment deals with HLA-A*3301 (human). Described as above.
The target of experiment [6] is T5, HLA-A*0301 (human).
T5 construct: also called HLA-A3
The experiment in a line: competition with 125I-labelled probe peptide for purified HLA-A*0301, gel filtration; ratio to standard peptide 941.12.

Experiment [7] has as its target T6, HLA-A*0301 (purified HLA class I molecule) (human).
T6 construct: also called A3
Kind of experiment: inhibition of 125I probe peptide binding to purified HLA; ratio to standard peptide; minus sign not explained.

Experiment [8] has as its target HLA-A*1101 (purified HLA class I molecule) (human). Kind of experiment: inhibition of 125I probe peptide binding to purified HLA; ratio to standard peptide.

As for PTHDPSPLQR (H was used here) [HER2/neu peptide, position 1102, 10 amino acids], in the experiment with HLA-A*0301 [1], the “relative binding ratio (IC50 of standard peptide / IC50 of test peptide)” value amounted to 0.0003 ratio.

For orientation: IC50 means the midpoint of a concentration-inhibition curve. High values mean a need for much substance, low ones inhibition by little substance. In the experiment with HLA-DRB1*0101, ITDFGLARLLDIDET [Her2/neu.861] returned an IC50 of 1040 nM.

With LTSIISAVVGILLVV [Her2/neu.651], the IC50 with HLA-DRB1*0101 came out at 26 nM.

B1: HER2/neu peptide, position 83, 10 amino acids (peptide)
peptide: YVLIAHNQVR
notes: Synthetic peptide; also called Her2/neu.83 (10-mer)
B1: the relative binding ratio with HLA-A*1101 [2] was 0.0013 ratio (IC50 of standard peptide / IC50 of test peptide); in the experiment with HLA-A*0301 [3], 0.0043 ratio (IC50 of standard peptide / IC50 of test peptide).

For RILKETELRK (Synthetic A3 supermotif peptide) [HER2/neu peptide, position 713, 10 amino acids], the relative binding ratio in the experiment with HLA-A*3101 was 0.0055 ratio (IC50 of standard peptide / IC50 of test peptide); in the experiment with HLA-A*0301 [4], 0.057 ratio (IC50 of standard peptide / IC50 of test peptide); with HLA-A*6801 it was 0.0002 ratio (IC50 of standard peptide / IC50 of test peptide); with HLA-A*1101 [5] it was 0.11 ratio (IC50 of standard peptide / IC50 of test peptide); with HLA-A*3301, 0.0013 ratio (IC50 of standard peptide / IC50 of test peptide).

Turning to ELMTFGAKPY (Synthetic peptide) [HER2/neu peptide, position 914, 10 amino acids (ELMTFGAKPY)], in the experiment with HLA-A*0301 [6], the “relative binding ratio (IC50 of standard peptide / IC50 of test peptide)” value came out at 0.0002 ratio.

In the case of GMSYLEDVR (also called Her2/neu.832 (9-mer)) [HER2/neu peptide, position 832, 9 amino acids], the relative binding ratio in [7] was -0.0002 ratio (IC50 standard / IC50 test); in [8], 0.0002 ratio (IC50 standard / IC50 test).

B2: HER2/neu peptide, position 835, 10 amino acids (peptide)
peptide: YLEDVRLVHR
notes: Synthetic peptide; also called Her2/neu.835 (10-mer)
As to B2, the relative binding ratio in the experiment with HLA-A*1101 [2] was 0.0001 ratio (IC50 of standard peptide / IC50 of test peptide); with HLA-A*0301 [3] it was 0.0003 ratio (IC50 of standard peptide / IC50 of test peptide).

Turning to GAGGMVHHR (also called Her2/neu.1038 (9-mer)) [HER2/neu peptide, position 1038, 9 amino acids], the relative binding ratio in [7] was -0.0002 ratio (IC50 standard / IC50 test); in [8] it was 0.0043 ratio (IC50 standard / IC50 test).

B3: HER2/neu peptide, position 888, 10 amino acids (peptide)
peptide: WMALESILRR
notes: Synthetic peptide; also called Her2/neu.888 (10-mer)
In the case of B3, the relative binding ratio is 0.0016 ratio (IC50 of standard peptide / IC50 of test peptide) with HLA-A*1101 [2] and 0.0085 ratio (IC50 of standard peptide / IC50 of test peptide) with HLA-A*0301 [3].

On to PLQRLRIVR [HER2/neu peptide, position 95, 9 amino acids], for which, in the experiment with HLA-A*0301 [1], the “relative binding ratio (IC50 of standard peptide / IC50 of test peptide)” value stood at 0.0002 ratio.

B4: HER2/neu peptide, position 959, 10 amino acids (peptide)
peptide: WMIDSECRPR
notes: Synthetic peptide; also called Her2/neu.959 (10-mer)
Consider B4, for which the relative binding ratio in the experiment with HLA-A*1101 [2] is 0.0002 ratio (IC50 of standard peptide / IC50 of test peptide); in the experiment with HLA-A*0301 [3] it was -0.0002 ratio (IC50 of standard peptide / IC50 of test peptide).

For the molecule RLVHRDLAAR (Synthetic A3 supermotif peptide) [HER2/neu peptide, position 840, 10 amino acids], the relative binding ratio with HLA-A*3101 was 0.95 ratio (IC50 of standard peptide / IC50 of test peptide); with HLA-A*0301 [4], 0.18 ratio (IC50 of standard peptide / IC50 of test peptide); with HLA-A*6801 it was 0.0036 ratio (IC50 of standard peptide / IC50 of test peptide); with HLA-A*1101 [5], 0.0001 ratio (IC50 of standard peptide / IC50 of test peptide); with HLA-A*3301 it was 0.0021 ratio (IC50 of standard peptide / IC50 of test peptide).

Consider DVRPQPPSPR (Synthetic peptide) [HER2/neu peptide, position 1144, 10 amino acids (DVRPQPPSPR)], for which the “relative binding ratio (IC50 of standard peptide / IC50 of test peptide)” value with HLA-A*0301 [6] was 0.0003 ratio.

As to NVKIPVAIK (Synthetic A3 supermotif peptide) [HER2/neu peptide, position 745, 9 amino acids], the relative binding ratio with HLA-A*3101 is 0.0015 ratio (IC50 of standard peptide / IC50 of test peptide); with HLA-A*0301 [4], 0.0058 ratio (IC50 of standard peptide / IC50 of test peptide); with HLA-A*6801, 0.12 ratio (IC50 of standard peptide / IC50 of test peptide); with HLA-A*1101 [5] it was 0.0007 ratio (IC50 of standard peptide / IC50 of test peptide); in the experiment with HLA-A*3301, 0.082 ratio (IC50 of standard peptide / IC50 of test peptide).

B5: HER2/neu peptide, position 973, 9 amino acids (peptide)
peptide: VSEFSRMAR
notes: Synthetic peptide; also called Her2/neu.973 (9-mer)
On to B5, for which the relative binding ratio is 0.0021 ratio (IC50 of standard peptide / IC50 of test peptide) with HLA-A*1101 [2] and -0.0002 ratio (IC50 of standard peptide / IC50 of test peptide) with HLA-A*0301 [3].

Turning to SVFQNLQVIR (Synthetic A3 supermotif peptide) [HER2/neu peptide, position 423, 10 amino acids], the relative binding ratio in the experiment with HLA-A*3101 is 0.034 ratio (IC50 of standard peptide / IC50 of test peptide); in the experiment with HLA-A*0301 [4], 0.017 ratio (IC50 of standard peptide / IC50 of test peptide); with HLA-A*6801 it was 0.25 ratio (IC50 of standard peptide / IC50 of test peptide); with HLA-A*1101 [5] it was 0.075 ratio (IC50 of standard peptide / IC50 of test peptide); with HLA-A*3301, 0.039 ratio (IC50 of standard peptide / IC50 of test peptide).

On to QLVTQLMPY [HER2/neu peptide, position 795, 9 amino acids], for which, in the experiment with HLA-A*0301 [1], the “relative binding ratio (IC50 of standard peptide / IC50 of test peptide)” value came out at 0.011 ratio.

Turning to DSECRPRFR (Synthetic peptide) [HER2/neu peptide, position 962, 9 amino acids (DSECRPRFR)], in the experiment with HLA-A*0301 [6], the “relative binding ratio (IC50 of standard peptide / IC50 of test peptide)” value is -0.0002 ratio.

DLAARNVLVK (Synthetic peptide) [HER2/neu peptide, position 845, 10 amino acids (DLAARNVLVK)]: the “relative binding ratio (IC50 of standard peptide / IC50 of test peptide)” value in the experiment with HLA-A*0301 [6] worked out at 0.0018 ratio.

Consider DLSYMPIWK (Synthetic peptide) [HER2/neu peptide, position 607, 9 amino acids (DLSYMPIWK)], for which the “relative binding ratio (IC50 of standard peptide / IC50 of test peptide)” value with HLA-A*0301 [6] was 0.0005 ratio.

Turning to EVTAEDGTQR (Synthetic peptide) [HER2/neu peptide, position 321, 10 amino acids (EVTAEDGTQR)], the “relative binding ratio (IC50 of standard peptide / IC50 of test peptide)” value in the experiment with HLA-A*0301 [6] was 0.0002 ratio.
